Laboratory results as given in patent US20180155451A1 (published 2018).

T1: FcγRIIa R (FcγRIIa, allotype R: Arg at position 131) extracellular domain with C-terminal His tag (human, UniProt P12318 34-217)
T1 construct: extracellular domain; also called FcgRIIa R; 2aR; not shown: His tag at the C terminus
T1 sequence (looked up): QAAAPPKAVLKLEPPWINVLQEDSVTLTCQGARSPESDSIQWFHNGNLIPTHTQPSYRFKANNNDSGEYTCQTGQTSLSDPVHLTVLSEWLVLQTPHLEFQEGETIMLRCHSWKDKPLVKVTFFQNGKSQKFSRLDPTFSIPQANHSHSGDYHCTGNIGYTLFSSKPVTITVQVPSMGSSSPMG

T2: FcγRIIb extracellular domain with C-terminal His tag (human, UniProt P31994 43-217)
T2 construct: extracellular domain; also called FcgRIIb; 2b; not shown: His tag at the C terminus
T2 sequence (looked up): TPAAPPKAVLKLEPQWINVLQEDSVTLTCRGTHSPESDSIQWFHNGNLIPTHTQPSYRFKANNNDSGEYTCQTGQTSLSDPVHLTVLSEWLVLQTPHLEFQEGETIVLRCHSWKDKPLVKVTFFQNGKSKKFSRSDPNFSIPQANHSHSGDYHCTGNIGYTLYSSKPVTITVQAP


Key:
[1] = molecular target: T1, FcγRIIa R (FcγRIIa, allotype R: Arg at …); assay: ratio He/Con_2aR : He/Con_2b (FcgRIIa R over FcgRIIb), SPR Biacore
Protocol: (§1) The heterodimerized antibodies He Abs in which one of the H chains was introduced with an alteration were assayed for their binding activities to each activating FcγR and inhibitory FcγR according to the method described in Example 4. […] The activating FcγRs in FIGS. 26, 27, 28, and 29 are FcγRIa, FcγRIIa (R), FcγRIIa (H), and FcγRIIIa, respectively.
(§2) Analysis of interaction between objective antibody and the FcγR was carried out using Biacore T100 (GE Healthcare). HBS-EP+ (GE Healthcare) was used as the running buffer, and the measurement temperature was set to 25° C. Chips produced by immobilizing the antigen peptide by the amine coupling method to a Series S Sencor Chip CM5 (GE Healthcare), or alternatively, chips produced by allowing preliminarily biotinylated antigen peptides to interact with and immobilize onto a Series S Sensor Chip SA (certified) (GE Healthcare) were used. Antibodies of interest were captured onto an antigen peptide-immobilized chip, and allowed to interact to each FcγR diluted with running buffer. To regenerate and repeatedly use the chip, the antibodies captured on the chip were washed off by reacting 10 mM glycine-HCl, pH 1.5.

[2] = molecular target: T1, FcγRIIa R (FcγRIIa, allotype R: Arg at …); assay: SPR Biacore, antibody captured, FcgR analyte; vs HeCon Ab GpH7-A5/GpH7-B3/GpL16-k0 = 100
Protocol: as §1, §2

[3] = molecular target: T2, FcγRIIb extracellular domain with …; assay: as above
Protocol: as §1, §2

Binder | He_2aR/2b (IIaR/IIb) [1] | He/Con_2aR [2] [control = 100] | He/Con_2b [3] [control = 100]
GpH7-A5/GpH7-B3 variant G236_04F/GpL16-k0 (antibody, human IgG1, kappa, He Ab: alteration in the GpH7-B3 H chain only; also called He Ab) heavy 1: not shown heavy 2: not shown light: DIVMTQSPLSLPVTPGEPASISCQASESLVHSNRNTYLHWYLQKPGQSPQLLIYKVSNRFSGVPDRFSGSGSGTDFTLKISRVEAEDVGVYYCSQNTHVPPTFGQGTKVEIERTVAAPSVFIFPPSDEQLKSGTASVVCLLNNFYPREAKVQWKVDNALQSGNSQESVTEQDSKDSTYSLSSTLTLSKADYEKHKVYACEVTHQGLSSPVTKSFNRGEC | 1.35 | 53.1 | 39.3
GpH7-A5/GpH7-B3 variant G236_13S/GpL16-k0 (antibody, human IgG1, kappa, He Ab: alteration in the GpH7-B3 H chain only; also called He Ab) heavy 1: not shown heavy 2: not shown light: DIVMTQSPLSLPVTPGEPASISCQASESLVHSNRNTYLHWYLQKPGQSPQLLIYKVSNRFSGVPDRFSGSGSGTDFTLKISRVEAEDVGVYYCSQNTHVPPTFGQGTKVEIERTVAAPSVFIFPPSDEQLKSGTASVVCLLNNFYPREAKVQWKVDNALQSGNSQESVTEQDSKDSTYSLSSTLTLSKADYEKHKVYACEVTHQGLSSPVTKSFNRGEC | 1.41 | 136 | 96.7
GpH7-A5/GpH7-B3 variant G236_06M/GpL16-k0 (antibody, human IgG1, kappa, He Ab: alteration in the GpH7-B3 H chain only; also called He Ab) heavy 1: not shown heavy 2: not shown light: DIVMTQSPLSLPVTPGEPASISCQASESLVHSNRNTYLHWYLQKPGQSPQLLIYKVSNRFSGVPDRFSGSGSGTDFTLKISRVEAEDVGVYYCSQNTHVPPTFGQGTKVEIERTVAAPSVFIFPPSDEQLKSGTASVVCLLNNFYPREAKVQWKVDNALQSGNSQESVTEQDSKDSTYSLSSTLTLSKADYEKHKVYACEVTHQGLSSPVTKSFNRGEC | 1.26 | 57.3 | 45.5
GpH7-A5/GpH7-B3 variant G236_14T/GpL16-k0 (antibody, human IgG1, kappa, He Ab: alteration in the GpH7-B3 H chain only; also called He Ab) heavy 1: not shown heavy 2: not shown light: DIVMTQSPLSLPVTPGEPASISCQASESLVHSNRNTYLHWYLQKPGQSPQLLIYKVSNRFSGVPDRFSGSGSGTDFTLKISRVEAEDVGVYYCSQNTHVPPTFGQGTKVEIERTVAAPSVFIFPPSDEQLKSGTASVVCLLNNFYPREAKVQWKVDNALQSGNSQESVTEQDSKDSTYSLSSTLTLSKADYEKHKVYACEVTHQGLSSPVTKSFNRGEC | 1.78 | 103 | 57.8
GpH7-A5/GpH7-B3 variant G236_08L/GpL16-k0 (antibody, human IgG1, kappa, He Ab: alteration in the GpH7-B3 H chain only; also called He Ab) heavy 1: not shown heavy 2: not shown light: DIVMTQSPLSLPVTPGEPASISCQASESLVHSNRNTYLHWYLQKPGQSPQLLIYKVSNRFSGVPDRFSGSGSGTDFTLKISRVEAEDVGVYYCSQNTHVPPTFGQGTKVEIERTVAAPSVFIFPPSDEQLKSGTASVVCLLNNFYPREAKVQWKVDNALQSGNSQESVTEQDSKDSTYSLSSTLTLSKADYEKHKVYACEVTHQGLSSPVTKSFNRGEC | 2.45 | 65.8 | 26.8
GpH7-A5/GpH7-B3 variant G236_12R/GpL16-k0 (antibody, human IgG1, kappa, He Ab: alteration in the GpH7-B3 H chain only; also called He Ab) heavy 1: not shown heavy 2: not shown light: DIVMTQSPLSLPVTPGEPASISCQASESLVHSNRNTYLHWYLQKPGQSPQLLIYKVSNRFSGVPDRFSGSGSGTDFTLKISRVEAEDVGVYYCSQNTHVPPTFGQGTKVEIERTVAAPSVFIFPPSDEQLKSGTASVVCLLNNFYPREAKVQWKVDNALQSGNSQESVTEQDSKDSTYSLSSTLTLSKADYEKHKVYACEVTHQGLSSPVTKSFNRGEC | 3.55 | 24.1 | 6.8
GpH7-A5/GpH7-B3 variant G236_07I/GpL16-k0 (antibody, human IgG1, kappa, He Ab: alteration in the GpH7-B3 H chain only; also called He Ab) heavy 1: not shown heavy 2: not shown light: DIVMTQSPLSLPVTPGEPASISCQASESLVHSNRNTYLHWYLQKPGQSPQLLIYKVSNRFSGVPDRFSGSGSGTDFTLKISRVEAEDVGVYYCSQNTHVPPTFGQGTKVEIERTVAAPSVFIFPPSDEQLKSGTASVVCLLNNFYPREAKVQWKVDNALQSGNSQESVTEQDSKDSTYSLSSTLTLSKADYEKHKVYACEVTHQGLSSPVTKSFNRGEC | 2.81 | 87.1 | 31
GpH7-A5/GpH7-B3 variant G236_05P/GpL16-k0 (antibody, human IgG1, kappa, He Ab: alteration in the GpH7-B3 H chain only; also called He Ab) heavy 1: not shown heavy 2: not shown light: DIVMTQSPLSLPVTPGEPASISCQASESLVHSNRNTYLHWYLQKPGQSPQLLIYKVSNRFSGVPDRFSGSGSGTDFTLKISRVEAEDVGVYYCSQNTHVPPTFGQGTKVEIERTVAAPSVFIFPPSDEQLKSGTASVVCLLNNFYPREAKVQWKVDNALQSGNSQESVTEQDSKDSTYSLSSTLTLSKADYEKHKVYACEVTHQGLSSPVTKSFNRGEC | 2.52 | 47.9 | 19

Continued, values first:

He_2aR/2b (IIaR/IIb) [1] | He/Con_2aR [2] [control = 100] | He/Con_2b [3] [control = 100] | Binder
1.34 | 77.9 | 58.2 | GpH7-A5/GpH7-B3 variant G236_20W/GpL16-k0 (antibody, human IgG1, kappa, He Ab: alteration in the GpH7-B3 H chain only; also called He Ab) heavy 1: not shown heavy 2: not shown light: DIVMTQSPLSLPVTPGEPASISCQASESLVHSNRNTYLHWYLQKPGQSPQLLIYKVSNRFSGVPDRFSGSGSGTDFTLKISRVEAEDVGVYYCSQNTHVPPTFGQGTKVEIERTVAAPSVFIFPPSDEQLKSGTASVVCLLNNFYPREAKVQWKVDNALQSGNSQESVTEQDSKDSTYSLSSTLTLSKADYEKHKVYACEVTHQGLSSPVTKSFNRGEC
1.43 | 78.6 | 54.8 | GpH7-A5/GpH7-B3 variant G237_14T/GpL16-k0 (antibody, human IgG1, kappa, He Ab: alteration in the GpH7-B3 H chain only; also called He Ab) heavy 1: not shown heavy 2: not shown light: DIVMTQSPLSLPVTPGEPASISCQASESLVHSNRNTYLHWYLQKPGQSPQLLIYKVSNRFSGVPDRFSGSGSGTDFTLKISRVEAEDVGVYYCSQNTHVPPTFGQGTKVEIERTVAAPSVFIFPPSDEQLKSGTASVVCLLNNFYPREAKVQWKVDNALQSGNSQESVTEQDSKDSTYSLSSTLTLSKADYEKHKVYACEVTHQGLSSPVTKSFNRGEC
1.35 | 74.5 | 55.2 | GpH7-A5/GpH7-B3 variant G237_16H/GpL16-k0 (antibody, human IgG1, kappa, He Ab: alteration in the GpH7-B3 H chain only; also called He Ab) heavy 1: not shown heavy 2: not shown light: DIVMTQSPLSLPVTPGEPASISCQASESLVHSNRNTYLHWYLQKPGQSPQLLIYKVSNRFSGVPDRFSGSGSGTDFTLKISRVEAEDVGVYYCSQNTHVPPTFGQGTKVEIERTVAAPSVFIFPPSDEQLKSGTASVVCLLNNFYPREAKVQWKVDNALQSGNSQESVTEQDSKDSTYSLSSTLTLSKADYEKHKVYACEVTHQGLSSPVTKSFNRGEC
2.24 | 62.7 | 27.9 | GpH7-A5/GpH7-B3 variant G236_16H/GpL16-k0 (antibody, human IgG1, kappa, He Ab: alteration in the GpH7-B3 H chain only; also called He Ab) heavy 1: not shown heavy 2: not shown light: DIVMTQSPLSLPVTPGEPASISCQASESLVHSNRNTYLHWYLQKPGQSPQLLIYKVSNRFSGVPDRFSGSGSGTDFTLKISRVEAEDVGVYYCSQNTHVPPTFGQGTKVEIERTVAAPSVFIFPPSDEQLKSGTASVVCLLNNFYPREAKVQWKVDNALQSGNSQESVTEQDSKDSTYSLSSTLTLSKADYEKHKVYACEVTHQGLSSPVTKSFNRGEC
1.59 | 74.2 | 46.6 | GpH7-A5/GpH7-B3 variant G236_19Q/GpL16-k0 (antibody, human IgG1, kappa, He Ab: alteration in the GpH7-B3 H chain only; also called He Ab) heavy 1: not shown heavy 2: not shown light: DIVMTQSPLSLPVTPGEPASISCQASESLVHSNRNTYLHWYLQKPGQSPQLLIYKVSNRFSGVPDRFSGSGSGTDFTLKISRVEAEDVGVYYCSQNTHVPPTFGQGTKVEIERTVAAPSVFIFPPSDEQLKSGTASVVCLLNNFYPREAKVQWKVDNALQSGNSQESVTEQDSKDSTYSLSSTLTLSKADYEKHKVYACEVTHQGLSSPVTKSFNRGEC
1.4 | 34.5 | 24.6 | GpH7-A5/GpH7-B3 variant G237_05P/GpL16-k0 (antibody, human IgG1, kappa, He Ab: alteration in the GpH7-B3 H chain only; also called He Ab) heavy 1: not shown heavy 2: not shown light: DIVMTQSPLSLPVTPGEPASISCQASESLVHSNRNTYLHWYLQKPGQSPQLLIYKVSNRFSGVPDRFSGSGSGTDFTLKISRVEAEDVGVYYCSQNTHVPPTFGQGTKVEIERTVAAPSVFIFPPSDEQLKSGTASVVCLLNNFYPREAKVQWKVDNALQSGNSQESVTEQDSKDSTYSLSSTLTLSKADYEKHKVYACEVTHQGLSSPVTKSFNRGEC
1.52 | 93 | 61.4 | GpH7-A5/GpH7-B3 variant G237_03V/GpL16-k0 (antibody, human IgG1, kappa, He Ab: alteration in the GpH7-B3 H chain only; also called He Ab) heavy 1: not shown heavy 2: not shown light: DIVMTQSPLSLPVTPGEPASISCQASESLVHSNRNTYLHWYLQKPGQSPQLLIYKVSNRFSGVPDRFSGSGSGTDFTLKISRVEAEDVGVYYCSQNTHVPPTFGQGTKVEIERTVAAPSVFIFPPSDEQLKSGTASVVCLLNNFYPREAKVQWKVDNALQSGNSQESVTEQDSKDSTYSLSSTLTLSKADYEKHKVYACEVTHQGLSSPVTKSFNRGEC
1.48 | 58.6 | 39.5 | GpH7-A5/GpH7-B3 variant G236_15Y/GpL16-k0 (antibody, human IgG1, kappa, He Ab: alteration in the GpH7-B3 H chain only; also called He Ab) heavy 1: not shown heavy 2: not shown light: DIVMTQSPLSLPVTPGEPASISCQASESLVHSNRNTYLHWYLQKPGQSPQLLIYKVSNRFSGVPDRFSGSGSGTDFTLKISRVEAEDVGVYYCSQNTHVPPTFGQGTKVEIERTVAAPSVFIFPPSDEQLKSGTASVVCLLNNFYPREAKVQWKVDNALQSGNSQESVTEQDSKDSTYSLSSTLTLSKADYEKHKVYACEVTHQGLSSPVTKSFNRGEC
